{
  "source": "patent US20170067044A1",
  "molecular_target": "streptavidin (recombinant, with Ni-affinity tag) (UniProt P22629)",
  "sequence (P22629 37-163 limits assumed)": "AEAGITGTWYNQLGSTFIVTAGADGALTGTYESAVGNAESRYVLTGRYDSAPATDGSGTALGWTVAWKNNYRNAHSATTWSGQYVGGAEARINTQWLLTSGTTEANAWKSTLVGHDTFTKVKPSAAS",
  "experiment": "PLISA on immobilized streptavidin, binding through biotin",
  "data": [
    {"substance": "biotinylated form of M13LuxABElink-SompbioVII3 (luciferase-encoding M13 phage exposing a biotinylated BirA-substrate polypeptide as part of capsid protein VII) (from UniProt P69533 1-33)", "values": [
      {"measurement": "smallest amount of streptavidin detected (pg loaded in the well)", "result": 1}
    ]}
  ]
}
